The values below come from paper doi:10.1101/2025.08.30.673307 (bioRxiv, 2025).

The series deals with the molecule itself. Nature of the series: cryo-EM structure.

B1: stomatin (STOM) fused at its C terminus with a Twin-Strep tag (natural protein, human, UniProt P27105 1-288, looked up)
chain: MAEKRHTRDSEAQRLPDSFKDSPSKGLGPCGWILVAFSFLFTVITFPISIWMCIKIIKEYERAIIFRLGRILQGGAKGPGLFFILPCTDSFIKVDMRTISFDIPPQEILTKDSVTISVDGVVYYRVQNATLAVANITNADSATRLLAQTTLRNVLGTKNLSQILSDREEIAHNMQSTLDDATDAWGIKVERVEIKDVKLPVQLQRAMAAEAEASREARAKVIAAEGEMNASRALKEASMVITESPAALQLRYLQTLTTIAAEKNSTIVFPLPIDMLQGIIGAKHSHLG
One may read the stoichiometry N as a count of units in the complex or per binding partner. Turning to B1, the “stoichiometry N” value worked out at 16 subunits.
